Primed or numbered codes have the meaning given here. Ends that are not written are not given here. Cy5.5 = cyanine fluorophore coupled as NHS ester to the lysine side chain; Cy5.5″ = fluorophore Cy5.5, coupled as NHS ester to Lys side chain
Assays:
[1] = target: human cMet on cells (HT29 human colorectal cancer cells; S114 cells; human colon tissue and organoids) (human) (UniProt P08581); assay: confocal microscopy, HT29 versus SW480 cells
[2] = target: human cMet on cells (HT29 human colorectal cancer cells; S114 cells; human colon tissue and organoids) (human) (UniProt P08581); assay: confocal microscopy, S114 versus NIH3T3 cells
[3] = target: human cMet on cells (HT29 human colorectal cancer cells; S114 cells; human colon tissue and organoids) (human) (UniProt P08581); assay: confocal microscopy, HT29 cells with control or cMet siRNA
[4] = target: T1, human cMet on cells (HT29 human colorectal cancer cells; S114 cells; human colon tissue and organoids) (human, UniProt P08581 25-1390); assay: confocal microscopy, S114 versus NIH3T3 cells, 5 µM peptide
T1 construct: whole, on cells; also called mesenchymal-epithelial transition factor
Description: (§1) FIG. 11. Peptide validation with mouse cells in vitro. […] Two-way ANOVA models were fit with terms for 6 conditions and 6 replicate slides on log-transformed data. Measurements were an average of 5 randomly chosen cells on 6 slides for each condition. […] An ANOVA model was fit to log-transformed data with terms for 6 conditions. There were 6 replicate slides per condition and 10 cells measured per slide.
(§2) HT29, SW480, S114 and NIH3T3 cells were inoculated in 12-well cell culture plates with circle glass coverslips to about 80% confluence. The cells were blocked with 1×PBS plus 2% BSA for 1 hour at 4° C., then were incubated with 5 μM peptides for 10 min at RT in the dark, washed thrice, and fixed with 4% PFA for 5 min, washed with 1×PBS, then mounted on glass slides with ProLong Gold reagent containing DAPI (Invitrogen, Waltham, Mass.).

[5] = target: T1, human cMet on cells (HT29 human …); assay: confocal microscopy, HT29 versus SW480 cells, 5 µM peptide
Procedure: FIG. 10. Peptide validation with human colorectal cancer cells in vitro. […] Two-way ANOVA models were fit with terms for 6 conditions and 6 replicate slides on log-transformed data. Measurements were an average of 5 randomly chosen cells on 6 slides for each condition.
(§3) HT29, SW480, S114 and NIH3T3 cells were inoculated in 12-well cell culture plates with circle glass coverslips to about 80% confluence. The cells were blocked with 1×PBS plus 2% BSA for 1 hour at 4° C., then were incubated with 5 μM peptides for 10 min at RT in the dark, washed thrice, and fixed with 4% PFA for 5 min, washed with 1×PBS, then mounted on glass slides with ProLong Gold reagent containing DAPI (Invitrogen, Waltham, Mass.). As positive control, after blocking with 2% BSA for 1 hour at 4° C., A 1:3000 dilution of primary monoclonal rabbit anti-cMet antibody (Cell Signaling Technology, #8198) was incubated with cells overnight at 4° C. […] Confocal fluorescence images were collected using a 63× oil-immersion objective (Leica SP5 Inverted 2-Photon FLIM Confocal). Fluorescence intensities from five cells in two independent images were quantified using custom Matlab (Mathworks) software.

[6] = target: T1, human cMet on cells (HT29 human …); assay: confocal microscopy, HT29 cells with control or cMet siRNA, 5 µM peptide
Description: FIG. 2. In vitro validation with cMet knockdown. […] Fluorescence intensities for D) peptide and E) antibody were reduced with HT29 knockdown cells transfected with sicMet-targeting siRNA. […] A two-way ANOVA model was fit with terms for 6 conditions and 6 replicate slides on log-transformed data. Measurements were an average of 5 randomly chosen cells on 6 slides for each condition.
as §3

[7] = target: T1, human cMet on cells (HT29 human …); assay: flow cytometry, QQT*-Cy5.5 at 0-200 nmol/L on HT29 cells, 1 hour at 4 °C
Procedure: We assessed the binding affinity of QQT*-Cy5.5 to HT29 cells by measuring the apparent dissociation constant. HT29 cells were blocked with 0.5% BSA, and then approximately 10⁵ cells were incubated with QQT*-Cy5.5 at concentrations of 0, 10, 25, 50, 75, 100, 125, 150, or 200 nmol/L for 1 hour at 4° C. Cells then were washed 3 times with 1×PBS containing 0.5% BSA to remove unbound peptides before analysis with flow cytometry (FACS Canto; BD Biosciences, San Jose, Calif.). Sample means were used to calculate the equilibrium dissociation constant KD using nonlinear regression analysis with Origin 6.1 data analysis software (OriginLab, Northampton, Mass.). […] I₀ and Iₘₐₓ are the initial and maximum fluorescence intensities, corresponding to no peptide and peptide saturation, respectively, and [X] represents the concentration of the bound peptide.³⁴
Specific binding of QQT*-Cy5.5 to cMet was confirmed by adding unlabeled QQT* to compete for binding. […] An apparent dissociation constant of kd=57 nM was measured for binding by QQT*-Cy5.5 to HT29 cells using flow cytometry, FIG. 3C, and an apparent association time constant of k=0.62 min⁻¹ (1.6 min) was measured for the same cells, supporting rapid binding with topical administration, FIG. 3D.

[8] = target: T2, mouse cMet on colonocytes of CPC;Apc mouse colon (mouse, UniProt P16056 25-1379); assay: ex vivo NIR fluorescence imaging of excised CPC;Apc mouse colon
T2 construct: whole, on cells; Target in tissue staining; also called cMet (mouse colon adenoma / dysplasia)
Procedure: After imaging was completed, the mice were euthanized. The colon was resected and divided longitudinally, the colon was excised, flushed with PBS, and opened longitudinally for imaging with the NIR fluorescence imaging system (Pearl®, LI-COR Biosciences). Images were collected with […] resolution using λex=685 nm and λem=720 nm. Images were analyzed with custom software (Image Studio, Li-Cor Biosciences). The normal colon region with an equal area adjacent to the polyps was used to measure background. Prism software (v6.02, GraphPad) was used to plot data.
After imaging was completed, the CPC;Apc mice were euthanized, and the colon was excised and divided longitudinally to expose the mucosal surface for collection of macroscopic white light and fluorescence images, FIGS. 5 L,M and 13A, B. The polyp locations co-localized on white light and fluorescence images, FIG. 13C. […] Immunohistochemistry was performed with a known antibody to validate increased expression of cMet in mouse dysplasia, FIG. 13E, by comparison with normal colonic mucosa, FIG. 13F.

[9] = target: T1, human cMet on cells (HT29 human …); assay: confocal microscopy, S114 cells, reference TLQ*-Cy5.5
Description: as §1, §2

T1 sequence (P08581 25-1390): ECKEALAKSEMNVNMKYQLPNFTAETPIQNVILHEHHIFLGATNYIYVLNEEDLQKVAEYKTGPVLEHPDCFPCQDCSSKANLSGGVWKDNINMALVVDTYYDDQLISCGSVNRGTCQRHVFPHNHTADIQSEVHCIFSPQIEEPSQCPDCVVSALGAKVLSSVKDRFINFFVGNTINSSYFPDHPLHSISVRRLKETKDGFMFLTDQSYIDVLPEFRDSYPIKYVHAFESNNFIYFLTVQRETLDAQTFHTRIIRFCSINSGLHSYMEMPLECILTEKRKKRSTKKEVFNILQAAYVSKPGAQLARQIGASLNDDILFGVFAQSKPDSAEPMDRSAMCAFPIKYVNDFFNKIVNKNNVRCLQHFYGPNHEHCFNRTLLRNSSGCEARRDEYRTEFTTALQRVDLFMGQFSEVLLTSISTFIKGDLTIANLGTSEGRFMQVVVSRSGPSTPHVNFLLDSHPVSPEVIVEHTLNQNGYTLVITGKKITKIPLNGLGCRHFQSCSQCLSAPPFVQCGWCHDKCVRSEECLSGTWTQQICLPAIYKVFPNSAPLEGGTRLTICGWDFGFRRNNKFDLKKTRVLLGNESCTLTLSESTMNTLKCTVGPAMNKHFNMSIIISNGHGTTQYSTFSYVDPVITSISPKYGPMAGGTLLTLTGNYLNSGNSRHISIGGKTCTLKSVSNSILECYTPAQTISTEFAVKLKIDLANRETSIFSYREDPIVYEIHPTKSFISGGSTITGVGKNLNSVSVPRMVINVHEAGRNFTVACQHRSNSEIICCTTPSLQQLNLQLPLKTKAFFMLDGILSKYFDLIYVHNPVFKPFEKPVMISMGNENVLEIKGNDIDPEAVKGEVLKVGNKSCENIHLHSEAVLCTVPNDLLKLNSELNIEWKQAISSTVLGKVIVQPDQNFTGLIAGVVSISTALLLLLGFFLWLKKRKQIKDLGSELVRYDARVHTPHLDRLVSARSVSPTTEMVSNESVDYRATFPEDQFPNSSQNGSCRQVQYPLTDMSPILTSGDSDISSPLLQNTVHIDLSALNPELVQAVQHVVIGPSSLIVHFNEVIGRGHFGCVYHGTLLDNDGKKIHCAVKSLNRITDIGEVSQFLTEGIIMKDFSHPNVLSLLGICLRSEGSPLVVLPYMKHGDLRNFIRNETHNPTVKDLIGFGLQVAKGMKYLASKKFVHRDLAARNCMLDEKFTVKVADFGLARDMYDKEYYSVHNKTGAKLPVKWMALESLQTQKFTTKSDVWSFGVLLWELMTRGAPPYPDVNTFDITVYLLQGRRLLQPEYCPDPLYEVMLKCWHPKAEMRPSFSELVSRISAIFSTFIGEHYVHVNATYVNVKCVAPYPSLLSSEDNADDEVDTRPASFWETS
human cMet on cells (HT29 human colorectal cancer cells; S114 cells; human colon tissue and organoids) (human), sequence (P08581 25-1390): as above
T2 sequence (P16056 25-1379): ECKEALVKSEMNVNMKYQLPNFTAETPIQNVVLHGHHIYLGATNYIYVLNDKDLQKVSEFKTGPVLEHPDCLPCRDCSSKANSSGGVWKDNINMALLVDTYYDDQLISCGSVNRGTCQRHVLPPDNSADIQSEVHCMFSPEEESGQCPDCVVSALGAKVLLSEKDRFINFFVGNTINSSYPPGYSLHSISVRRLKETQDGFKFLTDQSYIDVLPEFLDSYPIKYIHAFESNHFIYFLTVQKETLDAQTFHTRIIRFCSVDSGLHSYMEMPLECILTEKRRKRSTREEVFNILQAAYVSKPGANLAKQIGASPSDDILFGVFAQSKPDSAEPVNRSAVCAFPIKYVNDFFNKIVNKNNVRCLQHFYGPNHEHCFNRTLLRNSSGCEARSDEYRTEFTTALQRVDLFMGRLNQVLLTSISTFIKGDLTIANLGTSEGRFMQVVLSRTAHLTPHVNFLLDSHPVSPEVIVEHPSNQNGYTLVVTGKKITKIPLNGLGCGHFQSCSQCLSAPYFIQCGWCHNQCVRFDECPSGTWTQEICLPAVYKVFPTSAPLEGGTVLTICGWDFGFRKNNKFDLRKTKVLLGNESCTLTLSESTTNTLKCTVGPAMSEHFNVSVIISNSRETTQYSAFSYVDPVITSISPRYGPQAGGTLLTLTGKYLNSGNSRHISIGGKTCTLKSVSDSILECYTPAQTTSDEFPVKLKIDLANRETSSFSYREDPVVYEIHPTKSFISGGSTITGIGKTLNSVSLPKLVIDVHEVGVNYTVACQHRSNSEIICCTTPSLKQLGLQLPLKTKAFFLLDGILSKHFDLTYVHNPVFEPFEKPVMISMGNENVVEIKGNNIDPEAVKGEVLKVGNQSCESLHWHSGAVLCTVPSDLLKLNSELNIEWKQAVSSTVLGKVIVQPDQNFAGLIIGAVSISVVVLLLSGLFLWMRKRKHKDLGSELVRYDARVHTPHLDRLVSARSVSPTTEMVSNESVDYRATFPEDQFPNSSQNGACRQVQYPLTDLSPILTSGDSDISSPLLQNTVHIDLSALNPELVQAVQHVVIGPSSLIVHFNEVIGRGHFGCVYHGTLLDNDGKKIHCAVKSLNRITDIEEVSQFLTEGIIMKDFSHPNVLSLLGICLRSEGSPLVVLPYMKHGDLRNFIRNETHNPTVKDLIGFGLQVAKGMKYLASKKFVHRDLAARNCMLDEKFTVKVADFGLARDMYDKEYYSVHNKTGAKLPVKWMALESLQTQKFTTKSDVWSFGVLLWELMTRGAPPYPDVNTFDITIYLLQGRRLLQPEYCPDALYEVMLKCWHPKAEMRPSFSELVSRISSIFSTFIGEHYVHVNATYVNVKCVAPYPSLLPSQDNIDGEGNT

fold change of mean intensity, HT29 (cMet+) versus SW480 (cMet-) cells [1] [fold] | fold change of mean intensity, S114 (cMet+) versus NIH3T3 (cMet-) cells [2] [fold] | fold reduction of fluorescence intensity with knockdown of cMet (siCL versus sicMet HT29 cells) [3] [fold] | fold change of mean intensity, S114 (cMet+) versus NIH3T3 (cMet-) cells [4] [fold] | fold change of mean intensity, HT29 (cMet+) versus SW480 (cMet-) cells [5] [fold] | fold change of fluorescence intensity with knockdown of cMet (siCL versus sicMet HT29 cells) [6] [fold] | Kd [7] [nM] | binding result [8] | fold fluorescence intensity versus TLQ*-Cy5.5 [9] [fold] | fold reduction of fluorescence intensity with knockdown of cMet (siCL versus sicMet HT29 cells) [6] [fold] | Molecule
4.3 | 6.7 | 4.1 |  |  |  |  |  |  |  | primary monoclonal rabbit anti-cMet antibody (Cell Signaling Technology, #8198) detected with AF488-labeled secondary antibody
 |  |  | 0.72 | 0.85 | 0.96 |  |  |  |  | TLQWNQSGGGSK(Cy5.5″)-NH2 (Scrambled control of QQT*-Cy5.5; also called TQL*-Cy5.5) [TLQ*-Cy5.5 (scrambled control peptide TLQWNQS linked through a GGGSK linker to Cy5.5)]
 |  |  | 2.4 | 2.1 |  | 57 | binds | 7 | 2.9 | QQTNWSLGGGSK(Cy5.5)-NH2 (Linear monomer made by Fmoc solid-phase synthesis; m/z 1827.67; also called target peptide)

— patent US20220193271A1 (REGENTS OF THE UNIVERSITY OF MICHIGAN, published 2022)
